Drawing on patent US20240294895A1, “ENZYMATIC COMPOSITIONS FOR CARBOHYDRATE ANTIGEN CLEAVAGE ON DONOR ORGANS, METHODS AND USES ASSOCIATED THEREWITH” (THE UNIVERSITY OF BRITISH COLUMBIA, priority 2018, published 2024), this text covers Km, kcat and kcat/Km for three proteins.

Assay type in all cases: biochemical, Flavonifractor plautii
Substrate in series [1]: CC(=O)N[C@H]1[C@H](O[C@H]2[C@@H](O)[C@@H](CO)O[C@@H](Oc3ccc4c(C)cc(=O)oc4c3)[C@@H]2O)O[C@H](CO)[C@@H](O)[C@@H]1O[C@@H]1O[C@H](CO)[C@H](O)[C@H](O[C@H]2O[C@H](CO)[C@H](O)[C@H](O)[C@H]2N)[C@H]1O[C@@H]1O[C@@H](C)[C@@H](O)[C@@H](O)[C@@H]1O
The experiment in a line: Kinetic parameters of FpGalNase_truncA (coupled fluorescence assay, MU release). To be noted: other: 100 mM NaH2PO4, pH 7.4, 37° C. On the procedure: (§1) All kinetic assays utilizing 4-methylumbelliferone as leaving group were performed through measurement of fluorescence. To avoid measurement errors based on the inner filter effect (Palmier 2007) standard curves were used to validate the linear range of the fluorophore.
Michaelis-Menten parameter was determined for GalN antigen subtype 1penta-MU and A antigen subtype 1penta-MU in 100 mM NaH2PO4, pH 7.4 at 37° C. Reaction was performed in 100 μl with 3.4 nM FpGalactosaminidase (5.31 nM FpGalNase_truncA) and 0.1 mg/mL SpHex, AfcA, 0.2 mg/mL BgaC and varying concentrations of substrate (5 μM-2 mM). The reactions were run as a series of four with controls (no FpGalactosaminidase) as duplicates. The fluorescence signal (365/435 nm) resulting from MU release by hydrolysis was monitored by Synergy H1™ plate reader [BioTek™] and converted to concentration using MU standard concentration curves determined under identical reaction conditions. Initial rates (μM/s) were determined and plotted in Grafit 7.0™ to determine the kinetic parameters.

Substrate in series [2]: CC(=O)N[C@H]1[C@H](Oc2ccc3c(C)cc(=O)oc3c2)O[C@H](CO)[C@@H](O[C@@H]2O[C@H](CO)[C@H](O)[C@H](O[C@H]3O[C@H](CO)[C@H](O)[C@H](O)[C@H]3NC(C)=O)[C@H]2O[C@@H]2O[C@@H](C)[C@@H](O)[C@@H](O)[C@@H]2O)[C@@H]1O
The experiment in a line: Cleavage of A antigen Type2tetra-MU by FpGalNAcDeAc_D1min WT. To be noted: other: WT, pH 7.4, 37° C. As for the experimental part:
kcat/KM parameter were determined for A antigen subtype 1/2/4tetra-MU at pH 7.4 at 37° C. Reactions (total volume of 100 μL) were performed in black 96-plate wells and as coupled assays in 100 mM NaH2PO4 (pH 7.4) with 12 nM FpGalNAcDeacetylase 0.1 mg/mL SpHex, BgaC (BgaA for subtype II), AfcA, at varying concentrations of substrate (25 μM, 20 μM, 15 μM, 10 μM, 7.5 μM, 5 μM). The reactions were run as a series of four with controls (no FpGalNAcDeacetylase) as duplicates. The fluorescence signal (365/435 nm) resulting from MU release by hydrolysis was monitored on a Synergy H1™ plate reader (BioTek™) and converted to concentration using MU standard concentration curves determined under identical reaction conditions. Initial rates (μM/s) were determined and plotted in Grafit™ 7.0 to determine the kcat/KM (s^−1*mM^−1) parameters.
Based on structural information (not shown) and sequence alignment (not shown) FpGalNAcDeAc_D1min and FpGalNase_truncA were mutated using the QuickChange™ protocol (Zhang 2004), utilizing the primers noted in TABLE B. The mutants were purified via NiNTA and HIC columns as described above. The structural integrity of all mutants was checked via CD spectroscopy; all tested enzymes were structurally similar to their wild-type. […]

Substrate in series [3]: CC(=O)N[C@H]1[C@@H](O[C@H]2[C@@H](O)[C@@H](CO)O[C@@H](O[C@H]3[C@H](O)[C@@H](CO)O[C@@H](O[C@H]4[C@@H](O)[C@@H](CO)O[C@@H](Oc5ccc6c(C)cc(=O)oc6c5)[C@@H]4O)[C@@H]3NC(C)=O)[C@@H]2O[C@@H]2O[C@@H](C)[C@@H](O)[C@@H](O)[C@@H]2O)O[C@H](CO)[C@H](O)[C@@H]1O
The experiment in a line: Kinetic parameters of FpGalNAcDeAc_D1ext (coupled fluorescence assay, MU release). Particulars: other: 100 mM NaH2PO4, pH 7.4, 37° C. As for the experimental part: as §1
Michaelis-Menten parameters were determined for A antigen subtype 1penta-MU in 100 mM NaH2PO4, pH 7.4 at 37° C. using the coupled assays described previously (Kwan 2015). The assay was modified to allow detection of cleavage of the subtype 1 (and later 4), by use of BgaC (Jeong 2009) instead of BgaA (Singh 2014) as β-galactosidase. In addition, since A antigen subtype 1penta-MU contains an additional galactose, the concentration of BgaC was increased to 0.2 mg/mL to compensate for its need to cleave both the Gal-β-1,3-B-GlcNAc-β-1,3-Gal-β-MU and Gal-β-MU. Further, FpGalactosaminidase was included to allow the cleavage of the galactosamine-containing intermediate. Reaction setup in 100 μl was 3 nM FpGalNacDeacetylase (4.52 nM FpGalNacDeAc_D1ext, 3.55 nM FpGalNacDeAc_D1+2) and 0.01 mg/mL FpGalactosaminidase, 0.1 mg/mL SpHex, AfcA, 0.2 mg/mL BgaC and varying concentrations of substrate (5 μM-2.5 mM). The reactions were run as a series of four with controls (no FpGalNacDeacetylase) as duplicates. The fluorescence signal (365/435 nm) resulting from MU release by hydrolysis was monitored on a Synergy H1™ plate reader (BioTek™) and converted to concentration using MU standard concentration curves determined under identical reaction conditions. Initial rates (μM/s) were determined and plotted in Grafit 7.0 to determine the kinetic parameters.

Broadly, the Km is the concentration of substrate that gives half-maximal velocity. By kcat is commonly meant the maximal rate divided by the concentration of active sites. Usually kcat/Km stands for the second-order rate constant that governs catalysis at low substrate concentration.

B1: Flavonifractor plautii Galactosaminidase (FpGalNase) truncation _truncA (Flavonifractor plautii) (protein)
chain: AAPATDTGNAGLIAEGDYAIAGNGVRVTYDADGQTITLYRTEGSGLIQMSKPSPLGGPVIGGQEVQDFSHISCDVEQSTSGVMGSGQRMTITSQSMSTGLIRTYVLETSDIEEGVVYTATSYEAGASDVEVSWFIGSVYELYGAEDRIWSYNGGGEGPMHYYDTLQKIDLTDSGKFSRENKQDDTAASIPVSDIYIADGGITVGDASATRREVHTPVQETSDSAQVSIGWPGKVIAAGSVIEIGESFAVVHPGDYYNGLRGYKNAMDHLGVIMPAPGDIPDSSYDLRWESWGWGFNWTIDLIIGKLDELQAAGVKQITLDDGWYTNAGDWALNPEKFPNGASDALRLTDAIHEHGMTALLWWRPCDGGIDSILYQQHPEYFVMDADGRPARLPTPGGGTNPSLGYALCPMADGAIASQVDFVNRAMNDWGFDGFKGDYVWSMPECYNPAHNHASPEESTEKQSEIYRVSYEAMVANDPNVFNLLCNCGTPQDYYSLPYMTQIATADPTSVDQTRRRVKAYKALMGDYFPVTADHNNIWYPSAVGTGSVLIEKRDLSGTAKEEYEKWLGIADTVQLQKGRFIGDLYSYGFDPYETYVVEKDGVMYYAFYKDGSKYSPTGYPDIELKGLDPNKMYRIVDYVNDRVVATNLMGDNAVFNTRFSDYLLVKAVEISEPDPEPVDPDYGFTSVDDRDEALIYTGTWHDDNNASFSEGTARYTNSTDASVVFSFTGTSIRWYGQRDTNFGTAEVYLDDELKTTVDANGAAEAGVCLFEALDLPAAEHTIKIVCKSGVIDIDRFAYEAATLEPIYEKVDALSDRITYVGNWEEYHNSEFYMGNAMRTDEAGAYAELTFRGTAVRLYAEMSFNFGTADVYLDGELVENIILYGQEATGQLMFERTGLEEGEHTIRLVQNAWNINLDYISYLPEQDQPTPPETTVTVDAMDAQLVYTGVWNDDYHDVFQEGTARYASSAGASVEFEFTGSEIRWYGQNDSNFGVASVYIDNEFVQQVNVNGAAAVGKLLFQKADLPAGSHTIRIVCDTPVIDLDYLTYTTNA
Regarding B1, in series [1], the Km turned out to be 54.7 ± 3.1 µM, the kcat came to 1.86 s⁻¹ and the kcat/Km came out at 34080 M⁻¹ s⁻¹.

B2: Flavonifractor plautii GalNAcDeacetylase FpGalNAcDeAc_D1min, WT (Flavonifractor plautii) (protein)
chain: ADSSESALNKAPGYQDFPAYYSDSAHADDQVTHPDVVVLEEPWNGYRYWAVYTPNVMRISIYENPSIVASSDGVHWVEPEGLSNPIEPQPPSTRYHNCDADMVYNAEYDAMMAYWNWADDQGGGVGAEVRLRISYDGVHWGVPVTYDEMTRVWSKPTSDAERQVADGEDDFITAIASPDRYDMLSPTIVYDDFRDVFILWANNTGDVGYQNGQANFVEMRYSDDGITWGEPVRVNGFLGLDENGQQLAPWHQDVQYVPDLKEFVCISQCFAGRNPDGSVLHLTTSKDGVNWEQVGTKPLLSPGPDGSWDDFQIYRSSFYYEPGSSAGDGTMRVWYSALQKDTNNKMVADSSGNLTIQAKSEDDRIWRIGYAENSFVEMMRVLLDDPGYTTPALVSGNSLMLSAETTSLPTGDVMKLETSFAPVDTSDQVVKYTSSDPDVATVDEFGTITGVSVGSARIMAETREGLSDDLEIAVVENPYTLIPQSNMTATATSVYGGTTEGPASNVLDGNVRTIWHTNYAPKDELPQSITVSFDQPYTVGRFVYTPRQNGTNGIISEYELYAIHQDGSKDLVASGSDWALDAKDKTVSFAPVEAVGLELKAIAGAGGFGTAAELNVYAYGPIEPAPVYVPVDDRDASLVFTGAWNSDSNGSFYEGTARYTNEIGASVEFTFVGTAIRWYGQNDVNFGAAEVYVDGVLAGEVNVYGPAAAQQLLFEADGLAYGKHTIRIVCVSPVVDFDYFSYVGE
Regarding B2, the kcat/Km in series [2] came to 8210 ± 2070 M⁻¹ s⁻¹.

B3: Flavonifractor plautii GalNAcDeacetylase (FpGalNAcDeAc) truncation _D1ext (Flavonifractor plautii) (protein)
chain: B2 chain
As for B3, in series [3], the Km came out at 212 ± 37 µM, the kcat worked out at 5.37 s⁻¹ and the specificity constant (kcat/Km) was found to be 25230 M⁻¹ s⁻¹.
